Publication PMC7282669, “The hydrophobic effect characterises the thermodynamic signature of amyloid fibril growth” (PLoS Computational Biology, 2020)

Target: the molecule itself
Test: ITC; crystals injected into water; heat of crystal dissolution taken as the negative of the heat of crystal growth; two temperatures

B1: GNNQQNY, a small fragment of the Sup35 protein (peptide)
peptide: GNNQQNY
notes: fragment of the Sup35 protein; Forms amyloid-like microcrystals; also called GNNQQNY peptide
  binding result: binds
